Experiment [1] deals with Tob55 (endogenous; long, intermediate and short isoforms) (N. crassa). The experiment in a line: cross-linking.
Experiment [2] addresses His9-Tob38 (Tob38 with a 9x His tag, N. crassa strain Tob38HT) (N. crassa) (UniProt V5IPB4). Nature of the experiment: isotope dilution mass spectrometry.
Experiment [3] addresses His9-Tob37 (Tob37 with a 9x His tag, N. crassa strain Tob37HT) (N. crassa) (UniProt Q7SFC4). The experiment in a line: isotope dilution mass spectrometry.
The target in experiment [4] is His9-Tob55, short isoform (N. crassa strain Tob55 short HT) (N. crassa). The experiment in a line: cryo-EM structure.
Experiment [5] has the same target. The experiment in a line: isotope dilution mass spectrometry.
For experiment [6], the target named is T1, His9-Tob38 (Tob38 with a 9x His tag, N. crassa strain Tob38HT) (N. crassa, UniProt V5IPB4 1-340).
T1 sequence (looked up): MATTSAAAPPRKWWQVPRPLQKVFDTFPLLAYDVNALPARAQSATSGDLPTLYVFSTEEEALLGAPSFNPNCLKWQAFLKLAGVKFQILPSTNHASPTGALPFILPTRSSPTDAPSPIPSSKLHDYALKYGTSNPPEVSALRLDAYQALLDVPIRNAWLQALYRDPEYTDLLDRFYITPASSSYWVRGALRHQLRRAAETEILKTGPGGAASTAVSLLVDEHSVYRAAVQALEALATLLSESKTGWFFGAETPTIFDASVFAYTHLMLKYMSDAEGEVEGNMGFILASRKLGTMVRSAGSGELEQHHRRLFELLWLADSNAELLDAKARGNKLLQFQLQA
Nature of the experiment: isotope dilution mass spectrometry.

In experiment [7] the target is T2, His9-Tob37 (Tob37 with a 9x His tag, N. crassa strain Tob37HT) (N. crassa, UniProt Q7SFC4 1-442).
T2 sequence (looked up): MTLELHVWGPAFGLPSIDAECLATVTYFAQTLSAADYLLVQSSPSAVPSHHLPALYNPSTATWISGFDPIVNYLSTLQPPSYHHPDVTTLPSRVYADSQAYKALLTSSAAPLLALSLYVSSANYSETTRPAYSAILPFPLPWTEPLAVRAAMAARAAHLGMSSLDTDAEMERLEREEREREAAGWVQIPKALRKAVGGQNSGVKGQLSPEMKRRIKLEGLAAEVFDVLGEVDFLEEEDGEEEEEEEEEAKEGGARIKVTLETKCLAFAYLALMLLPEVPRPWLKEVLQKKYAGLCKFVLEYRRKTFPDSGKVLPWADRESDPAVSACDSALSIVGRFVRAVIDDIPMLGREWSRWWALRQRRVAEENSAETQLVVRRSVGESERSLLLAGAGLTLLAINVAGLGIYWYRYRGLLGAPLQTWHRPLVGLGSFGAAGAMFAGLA
Nature of the experiment: native gel or EMSA. Background: Mobility shift assays separate free from complexed probe on a gel.

Experiment [8] has as its target T1, His9-Tob38 (Tob38 with a 9x His tag, N. …). The experiment in a line: native gel or EMSA.
In experiment [9] the target is T2, His9-Tob37 (Tob37 with a 9x His tag, N. …). The experiment in a line: isotope dilution mass spectrometry.

In the case of “Tob55 (endogenous; long, intermediate and short isoforms) (natural protein)”, the stoichiometry N in [1] is 2; in [2], 1; in experiment [3], 1.
Take “His9-Tob55, short isoform (N. crassa strain Tob55 short HT) (natural protein)”: the stoichiometry N in experiment [4] came to 2.

B1: Tob37 (endogenous) (natural protein, N. crassa, UniProt Q7SFC4 1-442, looked up)
chain: MTLELHVWGPAFGLPSIDAECLATVTYFAQTLSAADYLLVQSSPSAVPSHHLPALYNPSTATWISGFDPIVNYLSTLQPPSYHHPDVTTLPSRVYADSQAYKALLTSSAAPLLALSLYVSSANYSETTRPAYSAILPFPLPWTEPLAVRAAMAARAAHLGMSSLDTDAEMERLEREEREREAAGWVQIPKALRKAVGGQNSGVKGQLSPEMKRRIKLEGLAAEVFDVLGEVDFLEEEDGEEEEEEEEEAKEGGARIKVTLETKCLAFAYLALMLLPEVPRPWLKEVLQKKYAGLCKFVLEYRRKTFPDSGKVLPWADRESDPAVSACDSALSIVGRFVRAVIDDIPMLGREWSRWWALRQRRVAEENSAETQLVVRRSVGESERSLLLAGAGLTLLAINVAGLGIYWYRYRGLLGAPLQTWHRPLVGLGSFGAAGAMFAGLA
On to B1, for which the stoichiometry N in experiment [5] and in [6] was 1 in each case.

B2: Mdm10 (endogenous) (natural protein, N. crassa, UniProt Q7SBE0 1-480, looked up)
chain: MREFMNYITNAFYGATGWNEDNKYNELNATSRELIDFPLPRGLRLTLSSLATPHFATSYQLGSVGVVDGSISYLHSSIPLTHIAAQSDKIPLPALLRCYRRLHDLRSPGQQHYILDADPLSGLPPPPQSARALLGAASDAAVAGGALDGGNTDQDLGIYTHSLLYGRLYLPKSLLEGMIIKRFTQALQVQVRAVSEQSLRNGGTILGLVQYDKGKYGLEGLYSTDGGLLGFRGLYNFGGDASSSTCDPWTPTPGENNNNNNNNNNNNNGNAQAGEKERIYGRFSVGGELYYGTLNKSGGMSLGARFATLPAHRGTPLTATLTINPLMGNINATYALLAREYCSLATRVDFNVYSYESEWAVGMELWSNRRPAGFLLGASPSNDFEPEPHPPRKKERSFQAKMEWRLDDPEPEPEPQPTPKTRKNDEYKGVLKARLDNNLRMGLLWEGRAKSLIFSIGTGIDLHKLGEPFRSLGLEVQYSS
In the case of B2, the “stoichiometry N” value in experiment [7] and in experiment [8] was 1 throughout.

B3: Tob38 (endogenous) (natural protein, N. crassa, UniProt V5IPB4 1-340, looked up)
chain: MATTSAAAPPRKWWQVPRPLQKVFDTFPLLAYDVNALPARAQSATSGDLPTLYVFSTEEEALLGAPSFNPNCLKWQAFLKLAGVKFQILPSTNHASPTGALPFILPTRSSPTDAPSPIPSSKLHDYALKYGTSNPPEVSALRLDAYQALLDVPIRNAWLQALYRDPEYTDLLDRFYITPASSSYWVRGALRHQLRRAAETEILKTGPGGAASTAVSLLVDEHSVYRAAVQALEALATLLSESKTGWFFGAETPTIFDASVFAYTHLMLKYMSDAEGEVEGNMGFILASRKLGTMVRSAGSGELEQHHRRLFELLWLADSNAELLDAKARGNKLLQFQLQA
As for B3, the stoichiometry N in experiment [5] and in experiment [9] was 1 throughout.

A word on the stoichiometry N: it is a count of units in the complex or per binding partner.
